In patent US20200199212A1 (Eli Lilly, published 2020):

T1: LPL on LPL-expressing cells (Example 1)
T1 sequence (P06858 28-475, species assumed, looked up): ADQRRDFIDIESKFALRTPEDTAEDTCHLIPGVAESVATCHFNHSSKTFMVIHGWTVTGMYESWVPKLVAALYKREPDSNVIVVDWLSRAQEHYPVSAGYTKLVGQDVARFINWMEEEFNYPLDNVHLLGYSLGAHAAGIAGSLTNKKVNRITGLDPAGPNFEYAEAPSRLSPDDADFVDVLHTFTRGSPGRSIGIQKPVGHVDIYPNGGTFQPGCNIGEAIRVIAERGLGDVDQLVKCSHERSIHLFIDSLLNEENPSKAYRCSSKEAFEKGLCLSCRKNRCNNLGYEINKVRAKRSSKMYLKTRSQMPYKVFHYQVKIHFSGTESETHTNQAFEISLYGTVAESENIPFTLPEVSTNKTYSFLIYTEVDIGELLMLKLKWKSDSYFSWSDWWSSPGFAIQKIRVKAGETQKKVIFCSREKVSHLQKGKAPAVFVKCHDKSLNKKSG

B1: human ANGPTL3 (ligand)
chain: SRIDQDNSSFDSLSPEPKSRFAMLDDVKILANGLLQLGHGLKDFVHKTKGQINDIFQKLNIFDQSFYDLSLQTSEIKEEEKELRRTTYKLQVKNEEVKNMSLELNSKLESLLEEKILLQQKVKYLEEQLTNLIQNQPETPEHPEVTSLKTFVEKQDNSIKDLLQTVEDQYKQLNQQHSQIKEIENQLRRTSIQEPTEISLSSKPRAPRTTPFLQLNEIRNVKHDGIPAECTTIYNRGEHTSGMYAIRPSNSQVFHVYCDVISGSPWTLIQHRIDGSQNFNETWENYKYGFGRLDGEFWLGLEKIYSIVKQSNYVLRIELEDWKDNKHYIEYSFYLGNHETNYTLHLVAITGNVPNAIPENKDLVFSTWDHKAKGHFNCPEGYSGGWWWHDECGENNLNGKYNKPRAKSKPERRRGLSWKSQNGRLYSIKSTKMLIHPTDSESFE
B2: human ANGPTL3/8 complex (other)
chain 1: SRIDQDNSSFDSLSPEPKSRFAMLDDVKILANGLLQLGHGLKDFVHKTKGQINDIFQKLNIFDQSFYDLSLQTSEIKEEEKELRRTTYKLQVKNEEVKNMSLELNSKLESLLEEKILLQQKVKYLEEQLTNLIQNQPETPEHPEVTSLKTFVEKQDNSIKDLLQTVEDQYKQLNQQHSQIKEIENQLRRTSIQEPTEISLSSKPRAPRTTPFLQLNEIRNVKHDGIPAECTTIYNRGEHTSGMYAIRPSNSQVFHVYCDVISGSPWTLIQHRIDGSQNFNETWENYKYGFGRLDGEFWLGLEKIYSIVKQSNYVLRIELEDWKDNKHYIEYSFYLGNHETNYTLHLVAITGNVPNAIPENKDLVFSTWDHKAKGHFNCPEGYSGGWWWHDECGENNLNGKYNKPRAKSKPERRRGLSWKSQNGRLYSIKSTKMLIHPTDSESFEAAADYKDDDDK
chain 2: APMGGPELAQHEELTLLFHGTLQLGQALNGVYRTTEGRLTKARNSLGLYGRTIELLGQEVSRGRDAAQELRASLLETQMEEDILQLQAEATAEVLGEVAQAQKVLRDSVQRLEVQLRSAWLGPAYREFEVLKAHADKQSHILWALTGHVQRQRREMVAQQHRLRQIQERLHTAALPA

Biological target: T1, LPL on LPL-expressing cells (Example 1)
Assay: cell-based or functional assay

| Binder | EC50 in the LPL assay (inhibition of LPL) [nM] |
| --- | --- |
| B1 | 21.5 |
| B2 | 0.54 |
